± gives the uncertainty stated by the source.
B1: Membrane-associated guanylate kinase, WW and PDZ domain-containing protein 3, residues 287 to 329; numbered along this chain, Q5TCQ9 (parent)
chain: MRDETLEPLPKNWEMAYTDTGMIYFIDHNTKTTTWLDPRLCKK
B2: Heterogeneous nuclear ribonucleoprotein U-like protein 2, residues 1 to 40; numbered along this chain, Q1KMD3 (parent)
chain: MEVKRLKVTELRSELQRRGLDSRGLKVDLAQRLQEALDAE

Variants of: B1
Assay: abundance fitness (aPCA) (normalised: wild type 0, dead -1); higher = more abundant; growth selection in yeast, the domain comes from the species named
Conditions: Homo sapiens

Variant | abundance fitness
R2L | -0.072 ± 0.054
R2W | -0.226 ± 0.038
R2S | -0.164 ± 0.044
R2N | -0.021 ± 0.046
R2T | -0.002 ± 0.033
R2E | -0.05 ± 0.038
R2G | -0.054 ± 0.043
R2V | -0.091 ± 0.033
R2A | -0.088 ± 0.039
R2K | -0.045 ± 0.073
R2F | -0.171 ± 0.049
R2C | -0.046 ± 0.048
R2I | -0.122 ± 0.055
R2M | -0.015 ± 0.077
M1R | -0.056 ± 0.035
M1V | -0.089 ± 0.038
M1T | -0.06 ± 0.039
M1G | -0.057 ± 0.032

Variant | abundance fitness
M1I | -0.152 ± 0.27
M1E | 0.001 ± 0.038
M1L | -0.074 ± 0.042
M1Q | -0.253 ± 0.12
M1S | -0.064 ± 0.096
M1K | 0.025 ± 0.047
M1Y | -0.1 ± 0.11
M1D | -0.026 ± 0.061
M1N | -0.213 ± 0.13
D3E | -0.039 ± 0.036
D3C | -0.164 ± 0.093
D3F | -0.161 ± 0.065
D3A | -0.089 ± 0.034
D3G | -0.065 ± 0.036
D3I | -0.213 ± 0.1
D3K | -0.046 ± 0.051
D3L | -0.175 ± 0.043

Variants of: B2
Assay: as above
Conditions: Homo sapiens

Variant | abundance fitness
R32Q | -0.262 ± 0.08
R32N | -0.395 ± 0.089
R32H | -0.399 ± 0.076
R32D | -0.076 ± 0.1
R32Y | -0.191 ± 0.33
R32P | -0.402 ± 0.087
R32A | -0.394 ± 0.062
R32W | -1 ± 0.081
R32I | -1.08 ± 0.2
R32G | -0.339 ± 0.051
R32L | -0.854 ± 0.063
R32T | -0.405 ± 0.073
R32M | -0.567 ± 0.067
R32C | -0.441 ± 0.066
R32F | -1.02 ± 0.17
R32E | -0.221 ± 0.077
R32V | -0.643 ± 0.057
R32S | -0.371 ± 0.065
K26W | -0.146 ± 0.058
K26D | -0.019 ± 0.09
K26I | -0.117 ± 0.089
K26T | -0.154 ± 0.082

Variant | abundance fitness
K26L | -0.179 ± 0.053
K26A | -0.066 ± 0.056
K26M | -0.048 ± 0.072
K26F | -0.361 ± 0.088
K26G | -0.178 ± 0.051
K26E | 0.107 ± 0.06
K26R | -0.074 ± 0.051
K26Y | -0.103 ± 0.15
K26P | -0.002 ± 0.069
K26V | -0.149 ± 0.056
K26S | -0.189 ± 0.073
K26Q | 0.008 ± 0.095
Q31M | -0.041 ± 0.07
Q31T | 0.085 ± 0.069
Q31E | 0.141 ± 0.078
Q31N | 0.252 ± 0.13
Q31K | 0.112 ± 0.067
Q31L | 0.009 ± 0.054
Q31P | -0.121 ± 0.062
Q31V | -0.003 ± 0.055
Q31F | -0.197 ± 0.079
Q31W | -0.176 ± 0.054

Variant | abundance fitness
Q31I | 0.012 ± 0.077
Q31H | -0.418 ± 0.13
Q31S | 0.058 ± 0.057
Q31C | -0.016 ± 0.083
Q31G | -0.055 ± 0.049
Q31A | 0.032 ± 0.058
A39H | -0.026 ± 0.12
A39T | -0.088 ± 0.061
A39R | 0.017 ± 0.049
A39L | -0.118 ± 0.059
A39N | 0.153 ± 0.2
A39F | -0.159 ± 0.09
A39G | -0.036 ± 0.049
A39V | -0.132 ± 0.059
A39K | -0.046 ± 0.079
A39P | -0.272 ± 0.12
A39Q | 0.005 ± 0.11
A39Y | -0.367 ± 0.098
A39I | -0.497 ± 0.18
A39D | -0.185 ± 0.14
A39W | -0.263 ± 0.061
A39S | -0.06 ± 0.052

Variant | abundance fitness
L25T | 0.155 ± 0.081
L25D | 0.151 ± 0.072
L25S | 0.118 ± 0.059
L25E | 0.257 ± 0.059
L25G | 0.095 ± 0.046
L25V | 0.066 ± 0.049
L25W | -0.248 ± 0.068
L25C | 0.019 ± 0.067
L25H | 0.105 ± 0.088
L25I | -0.095 ± 0.081
L25Y | -0.025 ± 0.11
L25Q | 0.046 ± 0.06
L25M | -0.096 ± 0.084
L25A | 0.189 ± 0.054
E35R | -0.047 ± 0.049
E35S | -0.018 ± 0.06
E35Y | -0.294 ± 0.12
E35H | -0.055 ± 0.065
E35P | -0.339 ± 0.059
E35C | -0.052 ± 0.064
E35G | -0.068 ± 0.049
E35F | -0.21 ± 0.079

Variant | abundance fitness
E35D | 0.036 ± 0.096
E35T | 0.005 ± 0.064
E35M | 0.009 ± 0.08
E35V | -0.045 ± 0.059
E35L | -0.168 ± 0.054
E35N | -0.036 ± 0.096
E35K | 0.058 ± 0.079
E35I | -0.167 ± 0.065
A30F | -0.217 ± 0.13
A30N | -0.422 ± 0.4
A30R | 0.046 ± 0.051
A30V | 0.011 ± 0.059
A30D | -0.217 ± 0.083
A30P | -0.718 ± 0.15
A30T | -0.058 ± 0.077
A30G | -0.361 ± 0.063
A30S | -0.165 ± 0.069
A30L | -0.21 ± 0.074
A30C | -0.006 ± 0.071
A30Q | 0.106 ± 0.09
A30W | -0.236 ± 0.056
G24T | -0.837 ± 0.074

Variant | abundance fitness
G24V | -0.855 ± 0.057
G24P | -0.578 ± 0.072
G24M | -0.81 ± 0.082
G24C | -0.773 ± 0.079
G24L | -0.984 ± 0.076
G24Q | -0.612 ± 0.14
G24R | -1.03 ± 0.051
G24A | -0.832 ± 0.077
G24S | -0.703 ± 0.072
G24W | -1.47 ± 0.08
G24K | -0.945 ± 0.12
G24Y | -1.1 ± 0.17
E40S | -0.311 ± 0.063
E40Y | -0.518 ± 0.22
E40G | -0.224 ± 0.063
E40P | -0.543 ± 0.28
E40W | -1.14 ± 0.087
E40I | -0.641 ± 0.1
E40C | -0.017 ± 0.41
E40T | -0.405 ± 0.22
E40R | -0.381 ± 0.056
E40V | -0.529 ± 0.084

— the Human Domainome abundance scans (Beltran et al. 2025)
